Entries after “also recorded” stand apart in the source; their conditions may differ. Each block holds one compound with its values, some of them ahead of it. *1 amine or outer side, *2 acyl side, *3 side chain or, on linkers, in order; H or OH if unused. Where a SMILES comes first, the peptide text is derived from it. [ ]: non-standard residue; d: D form. The star is where a group is joined. X2 = COc1cc(CN([C@@H](Cc2ccc(OP(=O)(O)O)cc2)C(=O)[*:2])[*:1])c([N+](=O)[O-])cc1OC; Gly(N-Dmnb) = COc1cc(CNCC(=O)O)c([N+](=O)[O-])cc1OC; X1 = CN(C)c1ccc(-c2cnc(-c3ccc(S(=O)(=O)*)cc3)o2)cc1; pY = N[C@@H](Cc1ccc(OP(=O)(O)O)cc1)C(=O)O; coumarin = not defined here; Dab = NCC[C@H](N)C(=O)O
How the values were obtained:
Lck SH2 domain [1] = target: T1, Lck SH2 domain (Homo sapiens, UniProt P06239); assay: Photolysis of caged peptide 4, read out by displacement of sensor A from the Lck SH2 domain; assay type: binding
T1 construct: made in house
T1 sequence (P06239 127-224 limits assumed): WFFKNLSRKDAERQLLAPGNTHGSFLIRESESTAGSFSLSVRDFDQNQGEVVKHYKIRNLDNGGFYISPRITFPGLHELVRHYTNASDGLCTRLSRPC
Procedure: Experiments were conducted using 3 μM peptide A, 20 μM DTT, 5 μM GST-Lck-SH2 (in 10% glycerol), peptide 4 (32 μM) in 33.3 mM Tris buffer (pH 7.5) and a total assay volume 150 μL. The fluorescence of the solution was monitored on a Photon Technology QM-1 spectrofluorimeter at 30° C. at λex=395 nm and λem=535 nm. Caged peptide (4) was irradiated using an Oriel Mercury Arc Lamp (Model 69907) equipped with a 360 nm colored glass filter (300-400 nm band pass) and an IR filter for various time periods (0-30 min).
An aliquot from each irradiation time period was added to the assay solution. A decrease in fluorescence intensity is indicative of displacement of the SH2 domain sensor A from the SH2 domain by uncaged peptide (6) (see FIGS. 7 and 8). An analogous set of experiments was performed with peptide 5. The formation of uncaged peptide 6 from caged peptides 4 and 5 was confirmed by analytical HPLC (comparison with the retention time of peptide 6 prepared by solid phase peptide synthesis) and by mass spectrometry.

Lck SH2 domain [2] = target: T1, Lck SH2 domain; assay: Competition assay with dapoxyl-labeled sensor peptide A for Kd at the Lck SH2 domain; assay type: binding
Procedure: By contrast, the difference in affinity between 5 (43±10 μM) and 6 is somewhat more modest. The caged derivative 4 is converted to the high affinity form 6 upon photolysis. Longer photolysis times generate larger yields of the active peptide 6 (see “Experimental procedures” section below). The latter provides a straightforward means to deliver desired quantities of the active species.
The competition assay schematically illustrated in FIG. 7 was employed to determine Kds for peptides 4, 5, and 6. Experiments were conducted using 3 μM peptide A, 20 μM DTT, 5 μM GST-Lck-SH2 (in 10% glycerol), and 33.3 mM of Tris buffer (pH 7.5) in a total assay volume of 150 μL. The fluorescence of the solution was monitored on a Photon Technology QM-1 spectrofluorimeter at 30° C. at λex=395 nm and λem=535 nm. The fluorescence of the peptide A solution was measured in the presence of variable concentrations of peptides 4, 5, or 6. Control assays in the absence of GST-Lck-SH2 were also performed at the same concentrations. The following Kdx values were obtained: peptide 4 (127±6 μM), peptide 5 (43±10 μM), and peptide 6 (2.6±0.2).
and [St]=total [A], Fx=fluorescence at a given concentration of peptide X (i.e. 4, 5, or 6), Fmax=fluorescence in the absence of peptide X, F0=fluorescence in the absence of Lck-SH2 domain, Kd=binding constant of A/Lck-SH2 domain, [Pt]=total [Lck-SH2], [P]=uncomplexed [Lck-SH2], [Xt]=total [4, 5, or 6], [PX]=[4, 5, or 6/Lck-SH2 complex], [SP]=[A/Lck-SH2 complex], Kdx=dissociation constant of peptide 4, 5, or 6/Lck-SH2 domain complex.

α-chymotrypsin = target: T2, α-chymotrypsin (Bos taurus, UniProt P00766); assay: Chymotrypsin continuous fluorescence substrate assay; assay type: biochemical
T2 construct: purchased Fisher or Aldrich (general materials statement only)
Procedure: The peptide 9 stock solution contained 5% DMSO and the assay solution contained less than 1% DMSO. The reaction was monitored on a Photon Technology QM-1 spectrofluorimeter at 30° C. using a λex=380 nm and a λem=460 nm.
Assays were conducted using 25 μM light exposed caged peptide 10 in 50 mM Tris buffer (pH 8.0), and 100 mM NaCl, 5 mM CaCl2, and 0.01% Tween-20 to which α-chymotrypsin was added to initiate the reaction. The fluorescence of the solution was monitored on a Photon Technology QM-1 spectrofluorimeter at 30° C. at λex=380 nm and λem=460 nm. Caged peptide 10 was irradiated using an Oriel Mercury Arc Lamp (Model 69907) equipped with a 360 nm colored glass filter (300-400 nm band pass) and an IR filter for various time periods (0, 5, 10, 15, and 20 min).

GST-Lck-SH2 [3] = target: GST-Lck-SH2 (UniProt P06239); assay: fluorescence of dapoxyl peptide A with Lck SH2 domain
Sequence of GST-Lck-SH2 (P06239 127-224 limits assumed): as above

GST-Lck-SH2 [4] = target: GST-Lck-SH2 (UniProt P06239); assay: fluorescence, 3 µM peptide A with 5 µM GST-Lck-SH2 and 32 µM unphotolysed peptide 4, t=0 min
[5] = target: T3, cAMP-dependent protein kinase (PKA) catalytic subunit (Homo sapiens, UniProt P17612); assay: PKA [γ-33P]ATP radioactive phosphorylation assay; assay type: biochemical
T3 construct: made in house
Procedure: PKA assays were performed in triplicate. 20 μL of a 30 μM solution of 12, which had been photolyzed for different time periods (5, 10, 15, 20, 25, 30 min), was added to each well of 96 multi-well assay plate containing 20 μL assay buffer [100 mM MOPS, 150 mM KCl, 12.5 mM MgCl2 and 150 μM cold ATP supplemented with 70-163 μCi/well [γ^−33P]ATP for radioactive detection]. 10 μL enzyme diluted buffer containing 100 mM MOPS (pH 7.1), 0.125 mg/mL bovine serum albumin, and 8 nM PKA catalytic subunit were added to initiate the reaction. Total reaction volume was 50 μL. After a 12-min incubation time at 30° C., 100 μL of 6% phosphoric acid was added to each well to stop the reaction (total volume: 150 μL). Following an additional 5 min incubation period at ambient temperature, 75 μL from each reaction well was transferred into each well of a Unifilter (P81 cellulose phosphate paper) assay plate. Each well was washed four times with 0.1% phosphoric acid in water. Scintillation solution was added to each well and ^33P-incorporation measured by scintillation counting with a MicroBeta™ TriLux & MicroBeta JET (Perkin Elmer). The formation of the photouncaged peptide was confirmed by ESI mass spectrometry.
Assays were performed as described above, except that the enzymatic reaction was stopped at different time points (2, 4, 6, 8, 10, 12, 14 min) by adding 6% phosphoric acid.

[6] = tested on: H2N-Leu-Arg-Arg-Ala-Ser-Leu-Gly-NH2 (11)
[7] = tested on: H2N-Leu-Arg-Arg-Ala-N(DMNB)Ser-Leu-Gly-NH2 (12)
[8] = tested on: Ac-Gly-Gly-Gly-N(DMNB)Phe-coumarin (10)
[9] = tested on: Ac-Gly-Gly-Gly-Phe-coumarin (9)
[10] = 10 nM α-chymotrypsin, Tris pH 8.0, 30° C.

Compound: CC[C@H](C)[C@H](NC(=O)[C@H](CCC(=O)O)NC(=O)CN(Cc1cc(OC)c(OC)cc1[N+](=O)[O-])C(=O)[C@H](Cc1ccc(OP(=O)(O)O)cc1)NC(C)=O)C(=O)N[C@@H](CCNC(C)=O)C(=O)N[C@@H](C)C(N)=O [peptide 4, Ac-pTyr-N(DMNB)Gly-Glu-Ile-Dab(Ac)-Ala-NH2] (Ac-[pY][Gly(N-Dmnb)]EI[Dab](Ac)A-NH2)
effect of photolysis of the caged peptide in the competition assay (Lck SH2 domain [1]; irradiation 0-30 min, 300-400 nm band pass, 32 μM peptide 4): complete displacement of A from the Lck SH2 domain
Kd (Lck SH2 domain [2]): 127 ± 6 µM

Compound: CC[C@H](C)[C@H](NC(=O)[C@H](CCC(=O)O)NC(=O)CNC(=O)[C@H](Cc1ccc(OP(=O)(O)O)cc1)N(Cc1cc(OC)c(OC)cc1[N+](=O)[O-])C(C)=O)C(=O)N[C@@H](CCNC(C)=O)C(=O)N[C@@H](C)C(N)=O [peptide 5, Ac-N(DMNB)pTyr-Gly-Glu-Ile-Dab(Ac)-Ala-NH2] (Ac-[X2]GEI[Dab](Ac)A-NH2)
Kd (Lck SH2 domain [2]): 43 ± 10 µM

Compound: CC[C@H](C)[C@H](NC(=O)[C@H](CCC(=O)O)NC(=O)CNC(=O)[C@H](Cc1ccc(OP(=O)(O)O)cc1)NC(C)=O)C(=O)N[C@@H](CCNC(C)=O)C(=O)N[C@@H](C)C(N)=O [peptide 6, Ac-pTyr-Gly-Glu-Ile-Dab(Ac)-Ala-NH2] (Ac-[pY]GEI[Dab](Ac)A-NH2)
Kd (Lck SH2 domain [2]): 2.6 ± 0.2 µM

Compound: CC[C@H](C)[C@H](NC(=O)[C@H](CCC(=O)O)NC(=O)CNC(=O)[C@H](Cc1ccc(OP(=O)(O)O)cc1)NC(C)=O)C(=O)N[C@@H](CCNS(=O)(=O)c1ccc(-c2ncc(-c3ccc(N(C)C)cc3)o2)cc1)C(=O)N[C@@H](C)C(N)=O [peptide A, Ac-pTyr-Gly-Glu-Ile-Dab(Dapoxyl)-Ala-NH2] (Ac-[pY]GEI[Dab](X1)A-NH2)
enhancement in fluorescence intensity relative to A in the absence of Lck-SH2 domain (Lck SH2 domain [1]; t=0 min photolysis, 3 μM A, 5 μM GST-Lck-SH2, 32 μM peptide 4): 4 fold

Compound: Ac-Gly-Gly-Gly-N(DMNB)Phe-coumarin [peptide 10]
activity as chymotrypsin substrate after photolysis (α-chymotrypsin; photolysis 5, 10, 15, 20 min): increasing photolysis times converts increasing amounts of caged analogue 10 to the active substrate 9
activity as chymotrypsin substrate (α-chymotrypsin; without photolysis, 25 μM caged peptide): essentially inactive; also recorded: not hydrolyzed

Km (α-chymotrypsin; [10]): 6.3 ± 1.3 µM
Vmax (α-chymotrypsin; [10]): 7.2 µmol/min/mg
enhancement in fluorescence upon complete hydrolysis (α-chymotrypsin; λex=380 nm, λem=460 nm): ~6 fold
Compound: Ac-Gly-Gly-Gly-Phe-coumarin (Ac-GGGF-coumarin; reading uncertain; also: printed as Ac-Gly-Gly-Gly-Phe-coumarin) [peptide 9]

fold increase in fluorescence upon binding (GST-Lck-SH2 [3]): 10 fold
fold enhancement in fluorescence intensity relative to A in the absence of Lck-SH2 domain (GST-Lck-SH2 [4]): 4 fold
Compound: Ac-pTyr-Gly-Glu-Ile-Dab(Dapoxyl)-Ala-NH2 (A) (peptide)

activity as PKA substrate after photolysis ([5]; photolysis 5-30 min): generates the active substrate 11
Compound: H2N-Leu-Arg-Arg-Ala-N(DMNB)Ser-Leu-Gly-NH2 [peptide 12]
activity as PKA substrate (phosphorylation) ([5]; in the absence of photolysis): fails to serve as a substrate; also recorded: not phosphorylated

Compound: PKA catalytic subunit
PKA-catalyzed phosphorylation, [γ-33P]ATP assay [6]: photolysis of 12 generates the active substrate 11 (as demonstrated by mass spectrometry) that, upon addition of PKA, furnishes the phosphorylated product
PKA-catalyzed phosphorylation, [γ-33P]ATP assay [7]: In the absence of photolysis, peptide 12 fails to serve as a substrate

Compound: α-chymotrypsin
hydrolysis by chymotrypsin, continuous fluorescence assay [8]: the caged derivative 10 is essentially inactive as a chymotrypsin substrate
Km [9]: Km=6.3±1.3 µM
Vmax [9]: Vmax=7.2µmol/min-mg
